From US20110263454A1, “Methods of Identifying Functional Characteristics of Promoters, Transcription Modifying Proteins and Transcription Modulating Agents” (Salk Institute for Biological Studies, priority 2008, published 2011)

B1: RXRg: Retinoic X Receptor γ (NR2B3), cDNA driver (protein, UniProt P48443 1-463, looked up)
Retinoic acid receptor …: MYGNYSHFMKFPAGYGGSPGHTGSTSMSPSAALSTGKPMDSHPSYTDTPVSAPRTLSAVGTPLNALGSPYRVITSAMGPPSGALAAPPGINLVAPPSSQLNVVNSVSSSEDIKPLPGLPGIGNMNYPSTSPGSLVKHICAICGDRSSGKHYGVYSCEGCKGFFKRTIRKDLIYTCRDNKDCLIDKRQRNRCQYCRYQKCLVMGMKREAVQEERQRSRERAESEAECATSGHEDMPVERILEAELAVEPKTESYGDMNMENSTNDPVTNICHAADKQLFTLVEWAKRIPHFSDLTLEDQVILLRAGWNELLIASFSHRSVSVQDGILLATGLHVHRSSAHSAGVGSIFDRVLTELVSKMKDMQMDKSELGCLRAIVLFNPDAKGLSNPSEVETLREKVYATLEAYTKQKYPEQPGRFAKLLLRLPALRSIGLKCLEHLFFFKLIGDTPIDTFLMEMLETPLQIT
B2: RORb: RAR-related Orphan Receptor β (NR1F2), cDNA driver (protein, UniProt Q92753 1-470, looked up)
Nuclear receptor ROR-beta: MCENQLKTKADATAQIEVIPCKICGDKSSGIHYGVITCEGCKGFFRRSQQNNASYSCPRQRNCLIDRTNRNRCQHCRLQKCLALGMSRDAVKFGRMSKKQRDSLYAEVQKHQQRLQEQRQQQSGEAEALARVYSSSISNGLSNLNNETSGTYANGHVIDLPKSEGYYNVDSGQPSPDQSGLDMTGIKQIKQEPIYDLTSVPNLFTYSSFNNGQLAPGITMTEIDRIAQNIIKSHLETCQYTMEELHQLAWQTHTYEEIKAYQSKSREALWQQCAIQITHAIQYVVEFAKRITGFMELCQNDQILLLKSGCLEVVLVRMCRAFNPLNNTVLFEGKYGGMQMFKALGSDDLVNEAFDFAKNLCSLQLTEEEIALFSSAVLISPDRAWLIEPRKVQKLQEKIYFALQHVIQKNHLDDETLAKLIAKIPTITAVCNLHGEKLQVFKQSHPEIVNTLFPPLYKELFNPDCATGCK
B3: HNF4g: Hepatocyte Nuclear Factor γ (NR2A2), cDNA driver (protein, UniProt Q14541 1-408, looked up)
Hepatocyte nuclear factor …: MNTTDNGVNCLCAICGDRATGKHYGASSCDGCKGFFRRSIRKSHVYSCRFSRQCVVDKDKRNQCRYCRLRKCFRAGMKKEAVQNERDRISTRRSTFDGSNIPSINTLAQAEVRSRQISVSSPGSSTDINVKKIASIGDVCESMKQQLLVLVEWAKYIPAFCELPLDDQVALLRAHAGEHLLLGATKRSMMYKDILLLGNNYVIHRNSCEVEISRVANRVLDELVRPFQEIQIDDNEYACLKAIVFFDPDAKGLSDPVKIKNMRFQVQIGLEDYINDRQYDSRGRFGELLLLLPTLQSITWQMIEQIQFVKLFGMVKIDNLLQEMLLGGASNDGSHLHHPMHPHLSQDPLTGQTILLGPMSTLVHADQISTPETPLPSPPQGSGQEQYKIAANQASVISHQHLSKQKQL
B4: TR2: Testicular Orphan Nuclear Receptor 2 (NR2C1), cDNA driver (protein, UniProt P13056 1-603, looked up)
Nuclear receptor subfamily 2 …: MATIEEIAHQIIEQQMGEIVTEQQTGQKIQIVTALDHNTQGKQFILTNHDGSTPSKVILARQDSTPGKVFLTTPDAAGVNQLFFTTPDLSAQHLQLLTDNSPDQGPNKVFDLCVVCGDKASGRHYGAVTCEGCKGFFKRSIRKNLVYSCRGSKDCIINKHHRNRCQYCRLQRCIAFGMKQDSVQCERKPIEVSREKSSNCAASTEKIYIRKDLRSPLTATPTFVTDSESTRSTGLLDSGMFMNIHPSGVKTESAVLMTSDKAESCQGDLSTLANVVTSLANLGKTKDLSQNSNEMSMIESLSNDDTSLCEFQEMQTNGDVSRAFDTLAKALNPGESTACQSSVAGMEGSVHLITGDSSINYTEKEGPLLSDSHVAFRLTMPSPMPEYLNVHYIGESASRLLFLSMHWALSIPSFQALGQENSISLVKAYWNELFTLGLAQCWQVMNVATILATFVNCLHNSLQQDKMSTERRKLLMEHIFKLQEFCNSMVKLCIDGYEYAYLKAIVLFSPDHPSLENMEQIEKFQEKAYVEFQDYITKTYPDDTYRLSRLLLRLPALRLMNATITEELFFKGLIGNIRIDSVIPHILKMEPADYNSQIIGHSI

Each molecule was assayed on Bmal1 promoter (assay: NHR-promoter luciferase screen, Bmal1 promoter). Settings: Bmal1 promoter; HR component without or with ligand.
Assay type: cell-based, mouse
Outline: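 Luciferase activity was measured 48 h after transfection, normalized to LacZ and then to a control lacking NHR or ligand. CV-1 cells carried 100 ng Bmal1 reporter, 50 ng NHR construct and 50 ng LacZ.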

Molecule	Luc. act., normalized to lacZ	Normalized Luc. act., normalized to control
B1	12.7	0.8
B2	16.5	1.1
B3	11.5	0.7
B4	10.8	0.7

Same assay, conditions: transcription factor +/- ligand; control = 1.00

Molecule	mBmal1 promoter reporter activity
B1	0.81
B2	1.06
B3	0.73
B4	0.69

These molecules were tested on mGhrelin promoter (assay: NHR-promoter luciferase screen, mGhrelin promoter). Settings: Table 8; mGhrelin.
Assay type: cell-based, mouse
Outline: (§1)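 CV-1 cells were co-transfected with 50 ng NHR (homodimer or NHR/RXR heterodimer), 100 ng promoter-luciferase construct and 50 ng LacZ. Luciferase was normalized to LacZ and to a no-NHR/no-ligand control.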

Molecule	Luc. act., normalized to lacZ	Normalized Luc. act., normalized to control
B1	59.0	1.1
B2	89.1	1.7
B3	58.1	1.1
B4	63.2	1.2

Same assay, conditions: Table 6d; luciferase activity relative to control (control = 1.00)

Molecule	Results of assays of transcription factor (+/- ligand) with mGhrelin
B1	1.13
B2	1.70
B3	1.11
B4	1.21

The molecules below were run on mAgrp promoter (assay: NHR-promoter luciferase screen, mAgrp promoter). Settings: Table 6d; luciferase activity relative to control (control = 1.00).
Assay type: cell-based, mouse
Outline: as §1

Molecule	Results of assays of transcription factor (+/- ligand) with mAgrp
B1	1.30
B2	1.37
B3	0.77
B4	0.98

Same assay, conditions: mAgrp promoter; HR component with or without ligand

Molecule	Luc. act., normalized to lacZ
B1	51.5
B2	54.3
B3	30.4
B4	39.0

Same assay, conditions: mAgrp promoter; HR component with or without ligand; relative to control

Molecule	Normalized Luc. act., normalized to control
B1	1.3
B2	1.4
B3	0.8
B4	1.0

Each molecule was assayed on hIRF7 promoter (assay: NHR-promoter luciferase screen, hIRF7 promoter). Settings: IRF7 promoter reporter; HR without or with its ligand; relative to control.
Assay type: cell-based, human
Outline: as §1

Molecule	Normalized Luc. act., normalized to control
B1	1.0
B2	1.6
B3	1.2
B4	1.0

Same assay, conditions: IRF7 promoter reporter; hormone receptor (HR) without or with its ligand

Molecule	Luc. act., normalized to lacZ
B1	27.4
B2	40.9
B3	31.7
B4	25.8

Same assay, conditions: transcription factor +/- ligand; control = 1.00

Molecule	hIRF7 promoter reporter activity
B1	1.04
B2	1.55
B3	1.20
B4	0.98

What follows are molecules tested on mUCP1 promoter (assay: NHR-promoter luciferase screen, mUCP1 promoter). Settings: mUCP1 promoter reporter; co-transfected HR, with or without its ligand.
Assay type: cell-based, mouse
Outline: as §1

Molecule	Luc. act., normalized to lacZ
B1	2.5
B2	3.8
B3	3.5
B4	8.1

Same assay, conditions: mUCP1 promoter reporter; co-transfected HR, with or without its ligand; relative to control

Molecule	Normalized Luc. act., normalized to control
B1	0.6
B2	0.9
B3	0.8
B4	1.8

Same assay, conditions: mUCP! promoter-luciferase, CV-1 cells, NHR +/- ligand, control = 1.00

Molecule	luciferase activity normalized to lacZ activity and to a control, mUCP!
B1	0.55
B2	0.86
B3	0.79
B4	1.82
